The chains are these.
B1: DLC1 (parent)
chain: NDDSADYQHFLQDCVDGLFKEVKE
B2: TRIM29 (parent)
chain: FAEKGELRKSIFSESRKPTVSIME
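Further: lentivirally expressed fusions sorted by FACS into six bins by GFP to DsRed ratio, PSI derived from sequencing read proportions per bin multiplied by bin number.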

The variants in the first data set derive from B1. The data set can be described thus: protein stability index of a GFP-peptide fusion (GPS, HEK-293T) (PSI 1-6); higher = more stable. The conditions noted are these: c terminus: a fixed tail appended.
On to NDDSADYQHILQDCVDGLFKEVKE [F10I], for which the protein stability index turned out to be 1.78.

As to NDDSADYQHVLQDCVDGLFKEVKE [F10V], the protein stability index was 1.42. On to NDDSADYQHKLQDCVDGLFKEVKE [F10K], for which the protein stability index amounted to 3.6.

In the case of NDDSADYQHSLQDCVDGLFKEVKE [F10S], the protein stability index is 3.92.

For the variant NDDSADYQHQLQDCVDGLFKEVKE [F10Q], the protein stability index was determined as 3.16. Regarding NDDSADYQHDLQDCVDGLFKEVKE [F10D], the protein stability index came to 5.1. Consider NDDSADYQHFLQDCVDGLFHEVKE [K20H], for which the protein stability index amounted to 3.45. Same read-out and setting: then NDDSADYQHFLQDCVDGLFSEVKE [K20S], with 4.74; and NDDSADYQHFLQDCVDGLFFEVKE [K20F], with 2.93. With NDDSADYQHFLQDCVDGLFAEVKE [K20A], the protein stability index amounted to 3.35. With NDDSADYQHFLQDCVDGLFYEVKE [K20Y], the protein stability index is 2.88. Take NDDSKDYQHFLQDCVDGLFKEVKE [A5K]: the protein stability index turned out to be 2.93.

As for NDDSLDYQHFLQDCVDGLFKEVKE [A5L], the protein stability index is 2.73. As for NDDSRDYQHFLQDCVDGLFKEVKE [A5R], the protein stability index was 2.49. Still for that read-out and setting: as for NDDSSDYQHFLQDCVDGLFKEVKE [A5S], the figure is 1.91.

As to NDDSYDYQHFLQDCVDGLFKEVKE [A5Y], the protein stability index was 2.17.

For NDDSVDYQHFLQDCVDGLFKEVKE [A5V], the protein stability index worked out at 2.02. As for NDDSADYQHFLQDCVDGLFKNVKE [E21N], the protein stability index is 3.81. The same measure, in the same setting: as for NDDSADYQHFLQDCVDGLFKRVKE [E21R], the figure is 2.55. Consider NDDSADYQHFLQDCVDGLFKKVKE [E21K], for which the protein stability index is 2.57. Consider NDDSADYQHFLQDCVDGLFKFVKE [E21F], for which the protein stability index turned out to be 2.51. NDDSADYQHFLQDCVDGLFKEVKL [E24L]: the protein stability index worked out at 2.36. In the case of NDDSADYQHFLQDCVDGLFKEVKM [E24M], the protein stability index worked out at 2.3. As for NDDSADYQHFLQDCVDGLFKEVKK [E24K], the protein stability index came to 2.2. On the same count and under the same terms, as for NDDSADYQHFLQDGVDGLFKEVKE [C14G], the figure is 4.86; as for NDDSADYQHFLQDVVDGLFKEVKE [C14V], 3.21; as for NDDSADYQHFLQDDVDGLFKEVKE [C14D], 5.03. Regarding NDDSADYQHFLQDIVDGLFKEVKE [C14I], the protein stability index was found to be 2.41.

On to NDDSADYQHFLQDNVDGLFKEVKE [C14N], for which the protein stability index was 5.34.

For NDDSADYQHFLQNCVDGLFKEVKE [D13N], the protein stability index worked out at 2.38. Same read-out and setting: as for NDDSADYQHFLQDCVDGVFKEVKE [L18V], the figure is 4.53; as for NDDSADYQHFLQDCVDGRFKEVKE [L18R], 4.58.

For the variant NDDSADYQHFTQDCVDGLFKEVKE [L11T], the protein stability index stood at 4.94. NDDSADYQHFKQDCVDGLFKEVKE [L11K]: the protein stability index was found to be 5.08. The same measure, in the same setting: as for NDDSADYQHFEQDCVDGLFKEVKE [L11E], the figure is 5.25; as for NDDSADYQTFLQDCVDGLFKEVKE [H9T], 2.25; as for NDDSADYQWFLQDCVDGLFKEVKE [H9W], 3.03. On to NDDSADYQVFLQDCVDGLFKEVKE [H9V], for which the protein stability index was 1.92. Still for that read-out and setting: as for NDDSADYFHFLQDCVDGLFKEVKE [Q8F], the figure is 2.65; as for NDDSADYHHFLQDCVDGLFKEVKE [Q8H], 2.36.

As to NDDSADYTHFLQDCVDGLFKEVKE [Q8T], the protein stability index came to 2.44. On the same count and under the same terms, then NDDSADYRHFLQDCVDGLFKEVKE [Q8R], with 2.08; and NDDSADYEHFLQDCVDGLFKEVKE [Q8E], with 2.62. As to NDDSADYNHFLQDCVDGLFKEVKE [Q8N], the protein stability index is 3.03. Turning to NDDSADYIHFLQDCVDGLFKEVKE [Q8I], the protein stability index was 2.26. Still for that read-out and setting: then NDDSADYPHFLQDCVDGLFKEVKE [Q8P], with 2.64; and NDDSADYQHFLQDCYDGLFKEVKE [V15Y], with 3.61; and NDDSAHYQHFLQDCVDGLFKEVKE [D6H], with 3.3.

On to NDDSASYQHFLQDCVDGLFKEVKE [D6S], for which the protein stability index was 3.44.

As for NDDSADYQHFLSDCVDGLFKEVKE [Q12S], the protein stability index turned out to be 3.3. For NDDSADYQHFLYDCVDGLFKEVKE [Q12Y], the protein stability index turned out to be 3.71. Consider NDDSADYQHFLKDCVDGLFKEVKE [Q12K], for which the protein stability index worked out at 2.33. On the same count and under the same terms, then NDDSADYQHFLQDCVRGLFKEVKE [D16R], with 4.08; and NDDSADYQHFLQDCVQGLFKEVKE [D16Q], with 2.31; and NDDSADYQHFLQDCVPGLFKEVKE [D16P], with 4.34. For the variant NDDSADYQHFLQDCVDGLFKEIKE [V22I], the protein stability index came to 2.58. As for NDDSADYQHFLQDCVDGLFKEAKE [V22A], the protein stability index turned out to be 4.42.

Consider NDDSADYQHFLQDCVDGLFKEWKE [V22W], for which the protein stability index was 4.73. Consider NDDSADYQHFLQDCVDGLFKEHKE [V22H], for which the protein stability index was determined as 5.31. Consider NDDSADYQHFLQDCVDGLFKESKE [V22S], for which the protein stability index turned out to be 5.4. Same read-out and setting: then NDASADYQHFLQDCVDGLFKEVKE [D3A], with 2.77; and NDPSADYQHFLQDCVDGLFKEVKE [D3P], with 2.65. On the same count and under the same terms, as for NDNSADYQHFLQDCVDGLFKEVKE [D3N], the figure is 3.02; as for NDESADYQHFLQDCVDGLFKEVKE [D3E], 3.85. Take NHDSADYQHFLQDCVDGLFKEVKE [D2H]: the protein stability index was 2.66. Turning to NKDSADYQHFLQDCVDGLFKEVKE [D2K], the protein stability index is 2.11. Same read-out and setting: then NLDSADYQHFLQDCVDGLFKEVKE [D2L], with 2.37. For the variant NYDSADYQHFLQDCVDGLFKEVKE [D2Y], the protein stability index is 1.2. Take NDDSADYQHFLQDCVDCLFKEVKE [G17C]: the protein stability index turned out to be 1.71. Regarding NDDSADYQHFLQDCVDELFKEVKE [G17E], the protein stability index turned out to be 2.41. Turning to NDDSADYQHFLQDCVDPLFKEVKE [G17P], the protein stability index stood at 4.92. In the case of NDDCADYQHFLQDCVDGLFKEVKE [S4C], the protein stability index was 1.56. Consider NDDGADYQHFLQDCVDGLFKEVKE [S4G], for which the protein stability index turned out to be 3.56.

In the case of NDDFADYQHFLQDCVDGLFKEVKE [S4F], the protein stability index was 2.26. Same read-out and setting: as for NDDVADYQHFLQDCVDGLFKEVKE [S4V], the figure is 2.57; as for NDDRADYQHFLQDCVDGLFKEVKE [S4R], 2.41. As to NDDSADYQHFLQDCVDGLFKEVHE [K23H], the protein stability index was 3.88.

As to NDDSADYQHFLQDCVDGLFKEVNE [K23N], the protein stability index was found to be 3.37. Still for that read-out and setting: then NDDSADYQHFLQDCVDGLFKEVGE [K23G], with 4.37; and NDDSADYQHFLQDCVDGLFKEVVE [K23V], with 2.05; and NDDSADYQHFLQDCVDGLFKEVLE [K23L], with 2.06. On the same count and under the same terms, as for NDDSADAQHFLQDCVDGLFKEVKE [Y7A], the figure is 3.78; as for NDDSADKQHFLQDCVDGLFKEVKE [Y7K], 4.33; as for NDDSADGQHFLQDCVDGLFKEVKE [Y7G], 4.01. With NDDSADIQHFLQDCVDGLFKEVKE [Y7I], the protein stability index was determined as 1.75. Still for that read-out and setting: as for YDDSADYQHFLQDCVDGLFKEVKE [N1Y], the figure is 2.73; as for EDDSADYQHFLQDCVDGLFKEVKE [N1E], 3. As to NDDSADYQHFLQDCVDGLGKEVKE [F19G], the protein stability index turned out to be 5.54. Turning to NDDSADYQHFLQDCVDGLVKEVKE [F19V], the protein stability index was found to be 2.89.

The variants in another data set derive from B2. The data set is described as above. The conditions noted are these: c terminus: a fixed tail appended.
As for FAEKGELRKSIFSESRKPWVSIME [T19W], the protein stability index amounted to 2.94. For the variant FAEKGELRKSIFSESRKPYVSIME [T19Y], the protein stability index turned out to be 2. For FAEKGELRKSIFSESRKPSVSIME [T19S], the protein stability index came out at 2.74.

In the case of FAEKGELRKSIFSESRKPVVSIME [T19V], the protein stability index amounted to 2.56. Still for that read-out and setting: as for FAEKGELRKSIFSESRKPTVSVME [I22V], the figure is 1.86.
